Source: the Human Domainome abundance scans (Beltran et al. 2025)

B1: Far upstream element-binding protein 3, residues 75 to 150; numbered along this chain, Q96I24 (parent)
chain: RTVITEEFKVPDKMVGFIIGRGGEQISRIQAESGCKIQIASESSGIPERPCVLTGTPESIEQAKRLLGQIVDRCRN
B2: Zinc finger MYM-type protein 6, residues 427 to 504; numbered along this chain, O95789 (parent)
chain: KLKCQHCNHLFATKPELLFYKGKMFLFCGKNCSDEYKKKNKVVAMCDYCKLQKIIKETVRFSGVDKPFCSEVCKFLSA

Variants of: B1
Assay: abundance fitness (aPCA) (normalised: wild type 0, dead -1); higher = more abundant; growth selection in yeast, the domain comes from the species named
Settings: Homo sapiens

Abundance fitness, by site and new letter:
I4: T -0.045, Q -0.087, C -0.092, K -0.035, V -0.047, A -0.122, F -0.095, H -0.146, R -0.065, W -0.125, E -0.059, L -0.081, N -0.081, Y -0.006, G -0.14, S -0.141
R1: K 0.008, W -0.2, F -0.059, I -0.016, N 0.063, E -0.062, D 0.022, V -0.043, Y -0.126, T 0.028, A -0.077, S -0.042, M 0.029, H -0.034, P -0.236, G -0.042, C 0.032, L -0.079
T2: D -0.061, I 0.038, P -0.106, Q -0.003, Y -0.069, W -0.133, E 0, A -0.049, K 0, M -0.033, H -0.06, L -0.05, G 0, R 0.014, C -0.114, V -0.035, F -0.031
T5: H -0.071, K -0.068, L -0.314, P -0.394, F -0.201, G -0.3, D -0.204, I -0.231, C -0.203, E -0.043, Q -0.099
V3: E -0.029, W -0.106, R -0.085, T -0.098, K -0.001, G -0.166, M -0.037, L -0.007, Q -0.084, D -0.111, H -0.155, P -0.117, A -0.064, F -0.066, I 0.044, N 0.073, Y -0.053, C -0.081

Variants of: B2
Assay: as above
Settings: Homo sapiens

Abundance fitness of substitutions, site by site:
K74: E -0.39, V -0.674, L -0.594, R -0.298, F -0.594, A -0.025, N -0.996, M 0.544, Q -0.123, G -0.427, T -0.017, S -0.705
P67: T -0.349, S 0.122, K 0.486, L -0.354, G 0.07, R 0.042, Q 0.296, A -0.51, E -0.562, M 0.952, W -0.088, V 0.27
F61: W 0.313, C 0.561, H -0.151, V 0.399, G -0.002, D 0.56, M 0.979, P -0.308, K -0.027, R 0.117, I 0.679, L 0.302, E 0.298, S 0.538, T 0.348, A 0.209
K66: Q -0.348, C -0.635, Y 0.215, T -0.199, E 0.161, S -0.669, M 0.325, L -0.889, A -0.292, V 0.542, W -0.845, G 0.144, H -0.091
V72: Q 0.562, R 0.411, K 0.775, A 0.252, S 0.239, E 0.535, G 0.036, Y 0.757, H 0.016, T 0.216, L 0.003, W 0.353, N 0.64, C 0.553
E71: S -0.239, Q -0.194, V -0.386, M 0.094, L -0.962, T 0.076, K 0.16, R -0.111, P -0.054, G -0.292, N 0.491, Y -0.28, W -0.634, H -0.09, A -0.188
F68: M 0.263, A -0.036, E -0.278, Y 0.439, S -0.842, T -0.555, C 0.204, D -0.35, R -0.516, Q -0.341, K -0.476, P -0.113, L -0.288, W -0.651
F75: R 0.499, G 0.484, A 0.488, Y -0.699, C 0.677, D 0.671, P 0.039, Q 0.096, S 0.48, L 0.365, K 0.533, V 0.256, I 0.02, T 0.557, N 0.487
C73: W -0.751, A -0.627, M -0.142, G -0.638, R -0.863, V -0.728, I -0.753, Q -0.944, D -0.505, P -1.51, E -0.885
V64: F -0.448, S -0.107, R 0.058, D 0.474, W -0.765, A -0.302, E 0.09, K -0.298, Y 0.387, T 0.037, I 0.365, M 0.606, C -0.432, Q -0.009, G 0.046
R60: Q 0.014, N 0.366, E 0.008, M 0.46, Y -0.423, D 0.342, W -0.468, G -0.215, V -0.093, H 0.001, P 0.116, S 0.39, L -0.309, K 0.041, C -0.059
S70: D -0.498, Q -0.578, Y -0.673, K -0.635, G -0.502, V -1.05, R -0.925, M -0.482, L -0.162, H -0.248, A -0.651, P -0.563, C -0.425, W -1.14
S62: V -0.536, M 0.432, G 0.327, A 0.054, D 0.914, Q 0.316, C -0.072, L -0.19, W -0.696, Y 0.176, R -0.01, P -0.325, H 0.585, T -0.141
G63: F -0.179, A -0.495, P -0.201, S -0.53, C -0.709, T -0.226, L -0.315, V -0.713, R -0.554, D 0.098, Q -0.191, E -0.502, W -0.486
S77: Y -0.09, V -0.857, G 0.139, E -0.615, D -0.14, T -1.01, A -0.129, L -1.36, W -0.106, N -0.434, C -0.104, R -0.394, Q -0.303
L76: T -0.109, P -0.5, V -0.581, G -0.052, Y -0.189, H 0.095, C 0.183, R 0.209, Q 0.603, M 0.759, W -0.174
A78: E -0.067, M 0.774, N -0.301, V -0.292, W -0.284, S -0.11, C -0.897, D 0.891, R -0.142, G 0.022
C69: K -0.637, V -1.03, T -0.902, Q -0.404, E -0.286, W -0.71, S -0.539, G -0.731, M -0.443, P -0.391, L -0.954, R -0.602, A -1.23
D65: V -0.232, N -0.141, F -0.598, A -0.226, I -0.666, S -0.188, G -0.488, T -0.208, C -0.284, M 0.006, P -0.339, R -0.908, L -0.105, E 0.142
